Measured values published in patent US20210388087A1 (Chugai, published 2021).
Positions count from the first letter of the chain named.

B1: H183/L072 VL V51N (antibody, name in Kabat numbering, V domains shown)
VH: QVQLVESGGGLVQPGRSLRLSCAASGFTFSNAWMHWVRQAPGKGLEWVAQIKDKGNAYAAYYAPSVKGRFTISRDDSKNSIYLQMNSLKTEDTAVYYCHYVHYASASTVLPAFGVDAWGQGTTVTVSS
VL: DIVMTQSPLSLPVTPGEPASISCQASQELVHMNRNTYLHWYQQKPGQAPRLLIYKNSNRFPGVPDRFSGSGSGTDFTLKISRVEAEDVGVYYCAQGTSVPFTFGQGTKLEIK
notes: Dual-Ig
B2: H183/L072 VL Y32F (antibody, name in Kabat numbering, V domains shown)
VH: B1 VH
VL: B1 VL with Y37F, N56V
notes: Dual-Ig
B3: H183/L072 VL V51S (antibody, name in Kabat numbering, V domains shown)
VH: B1 VH
VL: B1 VL with N56S
notes: Dual-Ig
B4: H183/L072 VL V94H (antibody, name in Kabat numbering, V domains shown)
VH: B1 VH
VL: B1 VL with N56V, V99H
notes: Dual-Ig
B5: H183/L072 VL V94P (antibody, name in Kabat numbering, V domains shown)
VH: B1 VH
VL: B1 VL with N56V, V99P
notes: Dual-Ig
B6: H183/L072 VL V94Q (antibody, name in Kabat numbering, V domains shown)
VH: B1 VH
VL: B1 VL with N56V, V99Q
notes: Dual-Ig
B7: H183/L072 VL Y32P (antibody, name in Kabat numbering, V domains shown)
VH: B1 VH
VL: B1 VL with Y37P, N56V
notes: Dual-Ig
B8: H183/L072 VL V51T (antibody, name in Kabat numbering, V domains shown)
VH: B1 VH
VL: B1 VL with N56T
notes: Dual-Ig
B9: H183/L072 VL Y32G (antibody, name in Kabat numbering, V domains shown)
VH: B1 VH
VL: B1 VL with Y37G, N56V
notes: Dual-Ig
B10: H183/L072 VL V94A (antibody, name in Kabat numbering, V domains shown)
VH: B1 VH
VL: B1 VL with N56V, V99A
notes: Dual-Ig
B11: H183/L072 VL V94F (antibody, name in Kabat numbering, V domains shown)
VH: B1 VH
VL: B1 VL with N56V, V99F
notes: Dual-Ig
B12: H183/L072 VL V51Q (antibody, name in Kabat numbering, V domains shown)
VH: B1 VH
VL: B1 VL with N56Q
notes: Dual-Ig
B13: H183/L072 VL V94W (antibody, name in Kabat numbering, V domains shown)
VH: B1 VH
VL: B1 VL with N56V, V99W
notes: Dual-Ig
B14: H183/L072 VL Y32H (antibody, name in Kabat numbering, V domains shown)
VH: B1 VH
VL: B1 VL with Y37H, N56V
notes: Dual-Ig
B15: H183/L072 VL V51R (antibody, name in Kabat numbering, V domains shown)
VH: B1 VH
VL: B1 VL with N56R
notes: Dual-Ig
B16: H183/L072 VL Y32A (antibody, name in Kabat numbering, V domains shown)
VH: B1 VH
VL: B1 VL with Y37A, N56V
notes: Dual-Ig
B17: H183/L072 VL V94D (antibody, name in Kabat numbering, V domains shown)
VH: B1 VH
VL: B1 VL with N56V, V99D
notes: Dual-Ig
B18: H183/L072 VL V94N (antibody, name in Kabat numbering, V domains shown)
VH: B1 VH
VL: B1 VL with N56V, V99N
notes: Dual-Ig
B19: H183/L072 VL Y32M (antibody, name in Kabat numbering, V domains shown)
VH: B1 VH
VL: B1 VL with Y37M, N56V
notes: Dual-Ig
B20: H183/L072 VL V94R (antibody, name in Kabat numbering, V domains shown)
VH: B1 VH
VL: B1 VL with N56V, V99R
notes: Dual-Ig
B21: H183/L072 VL V51P (antibody, name in Kabat numbering, V domains shown)
VH: B1 VH
VL: B1 VL with N56P
notes: Dual-Ig
B22: H183/L072 VL V94S (antibody, name in Kabat numbering, V domains shown)
VH: B1 VH
VL: B1 VL with N56V, V99S
notes: Dual-Ig
B23: H183/L072 VL V94L (antibody, name in Kabat numbering, V domains shown)
VH: B1 VH
VL: B1 VL with N56V, V99L
notes: Dual-Ig
B24: H183/L072 VL V94K (antibody, name in Kabat numbering, V domains shown)
VH: B1 VH
VL: B1 VL with N56V, V99K
notes: Dual-Ig
B25: H183/L072 VL V94I (antibody, name in Kabat numbering, V domains shown)
VH: B1 VH
VL: B1 VL with N56V, V99I
notes: Dual-Ig
B26: H183/L072 VL V94E (antibody, name in Kabat numbering, V domains shown)
VH: B1 VH
VL: B1 VL with N56V, V99E
notes: Dual-Ig
B27: H183/L072 VL V94M (antibody, name in Kabat numbering, V domains shown)
VH: B1 VH
VL: B1 VL with N56V, V99M
notes: Dual-Ig
B28: H183/L072 VL V94T (antibody, name in Kabat numbering, V domains shown)
VH: B1 VH
VL: B1 VL with N56V, V99T
notes: Dual-Ig
B29: H183/L072 VL Y32N (antibody, name in Kabat numbering, V domains shown)
VH: B1 VH
VL: B1 VL with Y37N, N56V
notes: Dual-Ig
B30: H183/L072 VL Y32I (antibody, name in Kabat numbering, V domains shown)
VH: B1 VH
VL: B1 VL with Y37I, N56V
notes: Dual-Ig
B31: H183/L072 VL V94G (antibody, name in Kabat numbering, V domains shown)
VH: B1 VH
VL: B1 VL with N56V, V99G
notes: Dual-Ig
B32: H183/L072 VL Y32L (antibody, name in Kabat numbering, V domains shown)
VH: B1 VH
VL: B1 VL with Y37L, N56V
notes: Dual-Ig
B33: H183/L072 VL V51W (antibody, name in Kabat numbering, V domains shown)
VH: B1 VH
VL: B1 VL with N56W
notes: Dual-Ig

Target: T1, Human CD137 ECD (human)
T1 construct: entry includes C-terminal His-tag and biotin acceptor peptide; also called human CD137 extracellular domain; 4-1BB
Assay: Biacore SPR, vs parent H183/L072

T1 sequence (chain, as listed by the source limits assumed): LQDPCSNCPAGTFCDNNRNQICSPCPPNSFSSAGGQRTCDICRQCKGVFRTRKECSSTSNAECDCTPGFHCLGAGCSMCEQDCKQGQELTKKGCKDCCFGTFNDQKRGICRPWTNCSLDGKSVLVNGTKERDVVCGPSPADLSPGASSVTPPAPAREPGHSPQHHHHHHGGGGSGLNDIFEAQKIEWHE

Fold change of affinity, 0 fold:
B7
B11
B13
B17
B19
B21
B22
B26
B30
B31

Fold change of affinity, 0.4 fold:
B20
B28

Fold change of affinity, 0.8 fold:
B6
B12

Fold change of affinity, 0.6 fold:
B3
B8

Fold change of affinity, 0.2 fold:
B18
B29
B32

Fold change of affinity, 1.4 fold:
B15

Fold change of affinity, 1.7 fold:
B2

Fold change of affinity, 1.8 fold:
B4

Fold change of affinity, 0.7 fold:
B25
B27

Fold change of affinity, 0.3 fold:
B1
B23

Fold change of affinity, 0.1 fold:
B5
B9
B10
B14
B16
B24
B33
